# Source: publication PMC7450096, “Structural mechanism for replication origin binding and remodeling by a metazoan origin recognition complex and its co-loader Cdc6” (Nature Communications, 2020)
# Tests used:
# [1] = biological target: T1, ATP-DmORC (DmORC^Orc1ΔN), DNA-free (Drosophila melanogaster, UniProt O16810+Q24169+Q7K2L1+Q9W102); assay: cryo-EM structure; type: binding; conditions: no DNA, no Cdc6; active conformation
# T1 construct: gene Orc1; heterohexamer; Orc1 lacking N-terminal 439 residues (truncation inferred for the DNA-free structure); tags cut by TEV; Hi5 insect cells; with Origin recognition complex subunit 2; Origin recognition complex subunit 6
# wild type DmORC = biological target: T2, wild type DmORC (Drosophila melanogaster, UniProt O16810+Q9W102); assay: NADH-coupled ATPase assay (PK/LDH), Michaelis-Menten fit; type: biochemical; conditions: pH 7.6, 10 mM magnesium acetate, 300 mM potassium glutamate, 27 °C, no DNA; Orc1/4 site
# T2 construct: gene Orc1; full-length heterohexamer Orc1-6; 6xHis (Orc1) and MBP (Orc4) tags cut by TEV; Hi5 insect cells; with Origin recognition complex subunit 2; Origin recognition complex subunit 3; Origin recognition complex subunit 5; Origin recognition complex subunit 6
# [2] = biological target: T3, Drosophila origin recognition complex, full-length (DmORC) (Drosophila, UniProt O16810 1-924; Q24168 1-618; Q7K2L1 1-721; Q9W102 1-459; Q24169 1-460; Q9Y1B2 …); assay: pull-down; MBP-DmCdc6 or 6xHis-MBP-DmCdc6ΔN (200 nM) as bait on amylose beads; DmORC (100 nM) with 60 bp AT-rich dsDNA (100 nM); 25 mM HEPES-KOH pH 7.6, 300 mM potassium glutamate, 10 mM magnesium acetate, 10% glycerol, 1 mM DTT, 0 or 1 mM ATP; 25 °C; SDS-PAGE and silver staining; conditions: both partners purified
# T3 construct: Orc1, Drosophila, subunit of full-length DmORC; Orc2, Drosophila, subunit of full-length DmORC; Orc3, Drosophila, subunit of full-length DmORC; Orc4, Drosophila, subunit of full-length DmORC; Orc5, Drosophila, subunit of full-length DmORC; Orc6, Drosophila, subunit of full-length DmORC; Heterohexamer Orc1-6; also called wild type DmORC; not shown: 6xHis, N-terminal, cleaved; MBP, N-terminal, …
# DmORC (Orc1-6) wild type [3] = biological target: T4, DmORC (Orc1-6) wild type (Drosophila melanogaster, UniProt O16810;Q24168;Q7K2L1;Q9W102;Q24169;Q9Y1B2 1-924;1-618;1-721;1-459;1-460;1-257); assay: fluorescence anisotropy; 1 mM ATP; Hill fit (quadratic fit 1.7 nM); Anisotropy: 1 nM dsDNA, 25 mM HEPES-KOH pH 7.6, 300 mM K-glutamate, 10 mM Mg-acetate, 10% glycerol, 0.1% NP40, 1 mM DTT, 0.1 mg/mL BSA, 0 or 1 mM ATP, 25 C, 40; conditions: protein: recombinant; tags: 6xHis-Orc1 and MBP-Orc4 tags cleaved by TEV; copies: 1;1;1;1;1;1; label: 5' fluorescein-dT on top strand; blunt 40 bp; the 5' fluorescein-dT may add one unpaired T
# [4] = biological target: T5, DmORC Orc1deltaN;DmCdc6deltaN241 (Drosophila melanogaster;Drosophila …, UniProt O16810;Q24168;Q7K2L1;Q9W102;Q24169;Q9Y1B2;Q9VSM9 …, |del1-241); assay: cryo-EM; gel filtration; ATP, Mg2+; DNA bent 46 deg; Anisotropy: 1 nM dsDNA, 25 mM HEPES-KOH pH 7.6, 300 mM K-glutamate, 10 mM Mg-acetate, 10% glycerol, 0.1% NP40, 1 mM DTT, 0.1 mg/mL BSA, 0 or 1 mM ATP, 25 C, 40; conditions: protein: recombinant;recombinant; tags: tags cleaved;6xHis-MBP cleaved by TEV; copies: 1;1;1;1;1;1;1; blunt
# DmORC Orc1deltaN = DmORC Orc1deltaN (Drosophila melanogaster, UniProt O16810;Q24168;Q7K2L1;Q9W102;Q24169;Q9Y1B2 440-924;1-618;1-721;1-459;1-460;1-257); assay: cryo-EM; gel filtration; ATP, Mg2+; Anisotropy: 1 nM dsDNA, 25 mM HEPES-KOH pH 7.6, 300 mM K-glutamate, 10 mM Mg-acetate, 10% glycerol, 0.1% NP40, 1 mM DTT, 0.1 mg/mL BSA, 0 or 1 mM ATP, 25 C, 40; conditions: protein: recombinant; tags: tags cleaved; copies: 1;1;1;1;1;1; blunt
# [5] = biological target: T5, DmORC Orc1deltaN;DmCdc6deltaN241; assay: cryo-EM; ATP, Mg2+; state 1, bend ~22 deg; Anisotropy: 1 nM dsDNA, 25 mM HEPES-KOH pH 7.6, 300 mM K-glutamate, 10 mM Mg-acetate, 10% glycerol, 0.1% NP40, 1 mM DTT, 0.1 mg/mL BSA, 0 or 1 mM ATP, 25 C, 40; conditions: protein: recombinant;recombinant; tags: tags cleaved;6xHis-MBP cleaved by TEV; copies: 1;1;1;1;1;1;1; blunt
# DmORC (Orc1-6) wild type [6] = biological target: T4, DmORC (Orc1-6) wild type; assay: fluorescence anisotropy; 1 mM ATP; Anisotropy: 1 nM dsDNA, 25 mM HEPES-KOH pH 7.6, 300 mM K-glutamate, 10 mM Mg-acetate, 10% glycerol, 0.1% NP40, 1 mM DTT, 0.1 mg/mL BSA, 0 or 1 mM ATP, 25 C, 40; conditions: protein: recombinant; tags: 6xHis-Orc1 and MBP-Orc4 tags cleaved by TEV; copies: 1;1;1;1;1;1; label: 5' fluorescein-dT on top strand; blunt 40 bp; the 5' fluorescein-dT may add one unpaired T
# DmORC Orc3-K141A = DmORC Orc3-K141A (Drosophila melanogaster, UniProt O16810;Q24168;Q7K2L1;Q9W102;Q24169;Q9Y1B2 1-924;1-618;1-721;1-459;1-460;1-257, K141A); assay: as above; conditions: protein: recombinant; tags: tags cleaved; copies: 1;1;1;1;1;1; label: 5' fluorescein-dT (/5FluorT/) on top strand; blunt 40 bp; the 5' fluorescein-dT may add one unpaired T
# DmORC Orc4-R97A = DmORC Orc4-R97A (Drosophila melanogaster, UniProt O16810;Q24168;Q7K2L1;Q9W102;Q24169;Q9Y1B2 1-924;1-618;1-721;1-459;1-460;1-257, R97A); assay: as above; conditions: protein: recombinant; tags: tags cleaved; copies: 1;1;1;1;1;1; label: 5' fluorescein-dT (/5FluorT/) on top strand; blunt 40 bp; the 5' fluorescein-dT may add one unpaired T
# T2 sequence (O16810 whole entry): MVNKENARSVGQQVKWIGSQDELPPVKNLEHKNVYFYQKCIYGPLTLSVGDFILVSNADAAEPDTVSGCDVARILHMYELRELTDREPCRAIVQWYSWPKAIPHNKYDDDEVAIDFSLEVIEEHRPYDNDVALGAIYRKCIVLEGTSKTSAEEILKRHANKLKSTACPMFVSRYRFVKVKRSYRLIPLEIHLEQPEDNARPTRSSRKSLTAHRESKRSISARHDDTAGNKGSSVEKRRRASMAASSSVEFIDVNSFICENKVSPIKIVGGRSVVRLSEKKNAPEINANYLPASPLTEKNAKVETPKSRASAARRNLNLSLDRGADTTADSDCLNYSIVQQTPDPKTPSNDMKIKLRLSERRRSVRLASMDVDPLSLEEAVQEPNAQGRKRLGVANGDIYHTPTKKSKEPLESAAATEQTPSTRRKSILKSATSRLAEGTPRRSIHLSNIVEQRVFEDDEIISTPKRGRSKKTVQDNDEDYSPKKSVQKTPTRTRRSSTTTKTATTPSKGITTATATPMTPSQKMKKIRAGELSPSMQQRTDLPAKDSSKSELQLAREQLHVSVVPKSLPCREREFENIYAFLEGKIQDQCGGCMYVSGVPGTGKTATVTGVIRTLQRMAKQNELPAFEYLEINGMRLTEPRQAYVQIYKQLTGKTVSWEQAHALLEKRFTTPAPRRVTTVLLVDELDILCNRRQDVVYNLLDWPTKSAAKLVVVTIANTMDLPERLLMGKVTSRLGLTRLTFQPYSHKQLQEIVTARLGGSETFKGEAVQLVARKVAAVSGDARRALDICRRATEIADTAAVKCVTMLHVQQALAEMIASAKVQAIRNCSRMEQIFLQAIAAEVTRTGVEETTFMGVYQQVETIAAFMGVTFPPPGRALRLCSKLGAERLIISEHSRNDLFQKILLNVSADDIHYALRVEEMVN
# T2 sequence (Q9W102 1-459): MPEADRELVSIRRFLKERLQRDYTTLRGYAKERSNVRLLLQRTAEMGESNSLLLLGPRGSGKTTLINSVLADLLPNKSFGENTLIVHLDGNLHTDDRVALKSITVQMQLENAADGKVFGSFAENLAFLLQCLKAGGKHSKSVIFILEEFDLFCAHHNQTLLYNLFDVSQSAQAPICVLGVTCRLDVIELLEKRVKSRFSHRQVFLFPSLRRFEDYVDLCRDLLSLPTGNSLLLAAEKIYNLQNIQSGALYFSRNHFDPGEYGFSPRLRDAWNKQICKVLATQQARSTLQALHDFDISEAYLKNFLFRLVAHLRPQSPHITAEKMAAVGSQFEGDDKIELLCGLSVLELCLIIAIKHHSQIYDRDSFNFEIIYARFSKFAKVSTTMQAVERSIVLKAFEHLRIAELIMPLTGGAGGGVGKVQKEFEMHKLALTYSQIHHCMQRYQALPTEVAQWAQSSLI
# T2 sequence (Q24168 whole entry partner): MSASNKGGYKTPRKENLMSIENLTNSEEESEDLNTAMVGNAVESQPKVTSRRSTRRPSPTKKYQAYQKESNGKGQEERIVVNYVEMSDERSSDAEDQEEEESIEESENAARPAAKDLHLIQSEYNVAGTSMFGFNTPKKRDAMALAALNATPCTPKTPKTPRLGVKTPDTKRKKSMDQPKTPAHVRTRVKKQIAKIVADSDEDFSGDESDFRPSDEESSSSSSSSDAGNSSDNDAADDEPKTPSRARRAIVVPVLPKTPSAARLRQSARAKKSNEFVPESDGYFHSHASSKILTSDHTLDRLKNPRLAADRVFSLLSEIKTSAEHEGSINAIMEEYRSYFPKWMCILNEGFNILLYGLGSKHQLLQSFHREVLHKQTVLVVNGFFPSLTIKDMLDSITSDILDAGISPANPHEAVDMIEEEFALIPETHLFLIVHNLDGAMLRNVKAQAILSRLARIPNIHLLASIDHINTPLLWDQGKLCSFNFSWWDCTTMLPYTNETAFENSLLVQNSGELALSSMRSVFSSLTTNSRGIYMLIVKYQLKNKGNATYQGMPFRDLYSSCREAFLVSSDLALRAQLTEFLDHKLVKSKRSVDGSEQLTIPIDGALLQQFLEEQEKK
# T2 sequence (Q7K2L1 1-721 partner): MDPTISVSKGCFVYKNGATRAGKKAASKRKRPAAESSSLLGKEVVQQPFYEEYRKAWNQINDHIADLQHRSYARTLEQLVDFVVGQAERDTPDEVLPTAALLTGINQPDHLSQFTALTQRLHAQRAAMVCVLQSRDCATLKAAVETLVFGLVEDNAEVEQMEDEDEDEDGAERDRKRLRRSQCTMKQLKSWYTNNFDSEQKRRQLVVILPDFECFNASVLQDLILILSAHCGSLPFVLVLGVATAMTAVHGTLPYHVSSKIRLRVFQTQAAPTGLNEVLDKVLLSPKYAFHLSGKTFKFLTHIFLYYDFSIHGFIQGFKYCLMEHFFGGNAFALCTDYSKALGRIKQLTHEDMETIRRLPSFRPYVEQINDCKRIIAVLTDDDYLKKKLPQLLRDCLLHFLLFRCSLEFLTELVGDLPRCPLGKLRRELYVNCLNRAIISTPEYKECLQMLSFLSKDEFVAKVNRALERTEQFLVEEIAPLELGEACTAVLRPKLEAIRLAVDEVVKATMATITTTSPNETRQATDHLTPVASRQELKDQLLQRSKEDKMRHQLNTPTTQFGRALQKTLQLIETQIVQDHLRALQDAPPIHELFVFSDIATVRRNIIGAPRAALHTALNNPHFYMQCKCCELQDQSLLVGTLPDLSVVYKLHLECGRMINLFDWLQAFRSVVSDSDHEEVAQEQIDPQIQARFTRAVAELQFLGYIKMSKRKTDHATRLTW
# T2 sequence (Q24169 whole entry partner): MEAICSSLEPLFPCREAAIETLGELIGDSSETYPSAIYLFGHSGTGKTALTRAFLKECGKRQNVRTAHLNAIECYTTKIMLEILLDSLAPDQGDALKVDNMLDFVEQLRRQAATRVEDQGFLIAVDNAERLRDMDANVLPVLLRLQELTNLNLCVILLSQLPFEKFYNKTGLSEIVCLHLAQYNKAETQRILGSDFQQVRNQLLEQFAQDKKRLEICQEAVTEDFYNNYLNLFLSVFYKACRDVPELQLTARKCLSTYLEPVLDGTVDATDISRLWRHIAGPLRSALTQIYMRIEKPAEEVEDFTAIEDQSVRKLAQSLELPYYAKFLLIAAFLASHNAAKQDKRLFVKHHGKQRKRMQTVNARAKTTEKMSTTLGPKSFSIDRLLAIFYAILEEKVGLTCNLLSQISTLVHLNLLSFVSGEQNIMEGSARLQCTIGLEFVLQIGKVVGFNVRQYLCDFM
# T2 sequence (Q9Y1B2 whole entry partner): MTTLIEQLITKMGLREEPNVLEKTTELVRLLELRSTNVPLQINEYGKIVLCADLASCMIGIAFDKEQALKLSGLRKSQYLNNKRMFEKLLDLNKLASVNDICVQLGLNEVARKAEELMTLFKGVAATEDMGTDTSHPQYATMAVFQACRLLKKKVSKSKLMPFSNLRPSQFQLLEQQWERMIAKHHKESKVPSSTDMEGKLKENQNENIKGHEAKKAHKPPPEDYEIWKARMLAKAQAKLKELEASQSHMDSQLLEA
# T1 sequence (O16810 440-924, stated change not applied): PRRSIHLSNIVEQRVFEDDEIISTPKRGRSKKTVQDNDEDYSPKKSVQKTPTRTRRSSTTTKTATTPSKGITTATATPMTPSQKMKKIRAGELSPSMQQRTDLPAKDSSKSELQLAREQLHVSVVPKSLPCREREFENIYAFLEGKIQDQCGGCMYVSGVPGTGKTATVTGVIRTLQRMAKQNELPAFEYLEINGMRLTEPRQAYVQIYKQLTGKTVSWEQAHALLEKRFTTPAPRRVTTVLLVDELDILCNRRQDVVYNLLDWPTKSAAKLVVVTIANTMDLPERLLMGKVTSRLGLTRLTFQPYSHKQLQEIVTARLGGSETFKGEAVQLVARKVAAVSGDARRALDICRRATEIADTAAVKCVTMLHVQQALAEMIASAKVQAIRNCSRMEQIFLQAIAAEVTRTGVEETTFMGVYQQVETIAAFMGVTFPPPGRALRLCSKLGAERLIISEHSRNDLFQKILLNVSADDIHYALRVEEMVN
# T1 sequence (Q9W102 1-459, stated change not applied): as the sequence (Q9W102 1-459) above
# T1 sequence (Q24169 whole entry, stated change not applied, the tested form may be a part): as the sequence (Q24169 whole entry partner) above
# T1 sequence (Q7K2L1 1-721, stated change not applied): as the sequence (Q7K2L1 1-721 partner) above
# T1 sequence (Q24168 whole entry partner, the tested form may be a part): as the sequence (Q24168 whole entry partner) above
# T1 sequence (Q9Y1B2 whole entry partner, the tested form may be a part): as the sequence (Q9Y1B2 whole entry partner) above
molecule,measurement,setting,value
Nc1ncnc2c1ncn2[C@@H]1O[C@H](COP(=O)(O)OP(=O)(O)OP(=O)(O)O)[C@@H](O)[C@H]1O [ATP],cryo-EM structure,[1],our DNA-free ATP-DmORC cryo-EM structure
same,"NADH-coupled ATPase assay (PK/LDH), Michaelis-Menten fit",wild type DmORC,we measured the ATP hydrolysis rates of wild type DmORC
"full-length MBP-tagged Drosophila Cdc6 (MBP-DmCdc6) (natural protein, UniProt Q9VSM9 1-662, looked up, TEV site between MBP and Cdc6; source: Hi5 insect cells, baculovirus, purified (amylose, gel filtration); not shown: MBP, N-terminal, kept) MAAVRRSTRLSSISKATAASPLPPSTQTPRRSEVWKRRQPKKVLADSDEEEEVVTAIYDLTSPVSENNENRNVLNKMDKISRRRTSQVQVAQSELPKTPRSTKKTVQSAGSSRAKREEENREATARFLEGEQDSEVDPLHGSPPKQRKLQPLPQHLISPSRLLDRLSIDERQEEEVEATTHKTETAEQQPKHQAKDEAKPRPKQQEDPLAQKQQEKPPTKQPNKNQTKEKSNIQTNEETQQNNLPSPSRNKYQNARRVLNSAETQNLPGRESQLQELREFFSNHLESQTSGSLYVSGQPGTGKTACLSLLLRDPDFSKRLQRVYINCTSIASVGAVYKKLCTELQLKVSGRTERDHLEAIQRHLKTAKRMLLLVLDEIDQLCTSRQEVLYTIFEWPALPGSRILLVGIANSLDLTDRALMRLNARCELKPRLMHFPPYSKQQIVEIFKSRLAEAEVLDVFPPVTLQLLAAKVSAISGDVRRALDIGRRVVEIAEQQKRDGEKEFNMKALQLEGKDAVEAKEKQDTLKPVQVTQVAAVLNKVYGASQNLEEDIEASFPLQQKLMLCTLVLMLRNERNKDISMGRLHEVYRRVCAKRNILALDQAEFTGTVDLVETRGILRIMRKKEPRLHKVLLQWDEEEVHAALSDKQLIASILSDTACLSK",binding result,[2],binds
40 bp poly(dA.dT) (dsDNA) DNA 1: TTTTTTTTTTTTTTTTTTTTTTTTTTTTTTTTTTTTTTTT DNA 2: AAAAAAAAAAAAAAAAAAAAAAAAAAAAAAAAAAAAAAAA,Kd,DmORC (Orc1-6) wild type [3],2.1 nM
60 bp AT-rich (dsDNA) DNA 1: CCTGCAGGCCTTTTGAAAAGCAAGCATAAAAGATCTAAACATAAAATCTGTAAAATAACA DNA 2: TGTTATTTTACAGATTTTATGTTTAGATCTTTTATGCTTGCTTTTCAAAAGGCCTGCAGG,binding result,[4],binds
same,binding result,DmORC Orc1deltaN,binds
60 bp poly(dA.dT) (dsDNA) DNA 1: AAAAAAAAAAAAAAAAAAAAAAAAAAAAAAAAAAAAAAAAAAAAAAAAAAAAAAAAAAAA DNA 2: TTTTTTTTTTTTTTTTTTTTTTTTTTTTTTTTTTTTTTTTTTTTTTTTTTTTTTTTTTTT,binding result,[5],binds
40 bp 100% GC (dsDNA) DNA 1: CGCCGGGGCCGGGGGCGCCCCGCCGCGCGGGGCCGGGCCC DNA 2: GGGCCCGGCCCCGCGCGGCGGGGCGCCCCCGGCCCCGGCG,binding signal,DmORC (Orc1-6) wild type [6],~20 fold higher Kd than poly(dA.dT)
40 bp AT-rich (ARS1-like) (dsDNA) DNA 1: TTTTGAAAAGCAAGCATAAAAGATCTAAACATAAAATCTG DNA 2: CAGATTTTATGTTTAGATCTTTTATGCTTGCTTTTCAAAA,binding signal,DmORC Orc3-K141A,~3 fold higher Kd than wild type
same,binding signal,DmORC Orc4-R97A,~3 fold higher Kd than wild type
